Experiment: label from the status in PepcDB records

Sequence	protein production
MRDAYLMMVLMDALKEIFDLKEILKSPIRNKKVILFVSLVFILSLVLLYILVVNIKYFSYLGDIIFQNFQKHVENLKITLNEDNLHIILAIWKNNLTVCILNYILGIFSLFVIAVNSYILSYVLYKFGAESFIYLVLPHGIIEIPALILSASGGVLFNMGLVNFLINIKFGTKREVLYYIKESLKLLILSIILFIVAGIVEGTITFKIAKIMFS	failed
MRDLDREETYLVDRTGLALELRDLVGTGPVPGEAYPGPHAALGYGEGQFAALLSGLPDWGEEGTLFLLEGGYDLGEAAGMALLAETGRARVVRVGFRPGVEVHIPPSPLAPYRYLRFLLLATGREEVLRSVDEALLEERRRLGPEVPVEENPAKFLAYTLLERLPLFYSPLFRPLEGAVQTLFARVAKSLSLTPPPSALEFFLVGLEARHEQGDPLAAVLLGPGEEAALAKEILESRVDALAEVPATGANRLAQVMALWYRMAWTAYYLALLYGVDPGDHGLLERLREVT	not failed
MRDLLNDLSEGLSHPDPILRAQIQMQKPLPKRFYKDVTVADVEEGGFTILLDGKPLRTPAKKPLVAPSRALADLLRDEWDAQKEVVNPVVMPVSRHVNTAIDGIASDTQAVFEDILRFSSSDLLCYRAGDPEALVARQTDYWDPVLDWATNVLGARFILVEGVMHRDQPREAIAAFAVTLKKYDTPIALAALHTMTSLTGSAILALALAEGELTLEEAWALAHLDEDWTAEQWGEDEEALERRAVRLIDMRAALNVLESLKSASLEHHHHHH	failed
MRDSFGDWAEKFLKSKEADGVSVSQLNSYKNYCRNHLSPLYMKSLSEILPADIQSIINETKLAKNTLKAIRNTASQIFRLAIENRAIDFNPADYVRIPKIALEHHHHHH	not failed
MREGLRVLNSCNKVRGIFTLTQKTIKTFCFILAILVLIIFAVVFHNHSLEIIDYIDDLGWLAPVLFLITYCLATLLLLPTMVLTLAGGAVFGPVFGTLLNLLGATSGAALAFLITRHLVYDWFSTKKGEKLNKLIAGVDEKGWVFVAFLRLFPIVPFNLVNYGLGVTGISFRLYLLTTFIFLIPAEIIYTYFGYVGMDALTRPGHLYRNGGIFLTGLAIFFLLVIRIMKKR	failed
MREIPLVSVALATYNGERYLRRQLDSVLAQTYRNIEIVVSDDCSRDGTVAILEEYRRAHGITFRVNERNLGFVRNFERALAGCRGEFIALSDQDDIWLPEKIETLVREIGPHSLIYTDALLIDGDDQPLPGSLVEVSGVRPVSGTCFEYFVCNNCVTGCTAMLRRDLLATALPIPEAETYHDWWLAVAASRRNGVVYHAAKLTEYRQHAHNYTGANVRAGLPARIAAHLMGKTAAEKRGYYELLANRARRYRAMADRLNLTPAERSFLEEIGEYAESLLSGGNRMKTFALALKYRETLFPAAGRWEKLLFVFSKLIAARAILEHHHHHH	not failed
MRELLVFLHILSAATWIGAALWVPGDVKRTVALGRPFVEQLAARARPALKLDLYAGFAVLVTGVLLIGVDGGHPRTGILVGFAATLARLLVVGFASMPAWRRVEGAVASGDLAAATAPARRLAMLGGIGHALWAIALAGMVF	failed
MRELNRLSEEITHILAAGEVVERPASCLKEVIENSIDAGASLIDIKLEKGGIKKIEVYDNGKGIHSDDIEYVFERHTTSKIKSVDDIFKITTMGFRGEALCAISSVSKVTLISRHYEQEQGCKVEVEGGKVLSKTIYPFEKGTRITIEDLFYNTPARLKFLKSPSAEQKYCIEVVEKIAICYPEISFRMQVDNKRQLFTPGDSKVESAIASVFGSEILKNLIDFSHQEEGLKVWGFFVNPVLSKSTRSGYHFYVNRRFIRSKLLSTCIDEAFKNSILTGRFPIVFLFIEINPIDIDVNVHPAKLEIKFKDERYVYNTVYKTVSSTLQSEKMIPKPTLDNLYLPQSVQDVKMVRNLWSYTQEQQSKEKAFQEDFNEFLKIEEQLDFSKVEVGKESKDVITVFSEEFNVETYKIVGYAFDTYIIVQKEDSLYLIDQHAVHERRLFELLKEEIFRNKIQRQILLSPIVIELPISQKEFALENVHIFEKLGFEIDDFGKNEIVVRTYPLLFEGAVDKFFILDIIEMIYNESVEKGITHFSEELLKKIACRAAVKGNMNISDLEKEEIVKLVLVEKKIFNCPHGRPVVIEIQKREIEKMFKRIV	failed
MRERTEARRRRIEEVLRRRQPDLTVLLENVHKPHNLSAILRTCDAVGVLEAHAVNPTGGVPTFNETSGGSHKWVYLRVHPDLHEAFRFLKERGFTVYATALREDARDFREVDYTKPTAVLFGAEKWGVSEEALALADGAIKIPMLGMVQSLNVSVAAAVILFEAQRQRLKAGLYDRPRLDPELYQKVLADWLRK	not failed

— a protein production outcome set (Wang et al. 2014)
